The results in this text go back to US12083134B2, “Anacardic acid for neural repair” (Vanderbilt University, priority 2018, dated 2024).

The test system of one test is MBP in OPCs. The test can be described thus: Western blot of MBP expression in OPC cultures treated with IL-33. It is filed as cell-based, rat. Conditions: OPCs treated with IL-33. The text has this:
(§1) FIG. 7A provides Western blot analysis of MPB expression in OPC cultures treated with IL-33. FIG. 7B provides qRT-PCR analysis showing the gene expression of transcription elements that bind to the MPB promoter region and major myelin genes treated with IL-33. T3 is the thyroid hormone internal positive control.
(§2) The importance of IL-33 as an inducer of a number of myelin genes has been shown. […] The expression of MBP, myelin oligodendrocyte glycoprotein (Mog), and proteolipoprotien (Plp) along with mRNAs of Purα, Sox10, and Sp-1 in OPCs cultured with IL-33 was quantified. Purα, Sox10, and Sp-1 are transcription elements that bind to the promoter region of MBP to initiate MBP gene expression.

In test [1] the test system is MBP, Mog, Plp, Purα, Sox10, Sp-1 in OPCs. In words: qRT-PCR of myelin genes and MBP promoter transcription elements in OPCs cultured with IL-33. It is filed as cell-based, rat.
From the text: as §1, §2

The subject of another test is OPCs. The test can be described thus: Maturation of OPCs cultured with IL-33 (O4 and MBP expressing cells). It is filed as cell-based, rat. The source says: The graphs to the right show the quantitation of O4 and MBP.
The formation of CNS myelin is dependent on the differentiation and maturation of OPCs. The process of maturation is well recognized both in vitro and in vivo. Immature OPCs express the receptor for platelet derived growth factor (PDGFR) and also express proteins that are recognized by antibody A2B5, anti O4, and anti Olig2 antibodies. As oligodendrocytes mature they lose their reactivity to A2B5, PDGFR, and Olig 2 and they begin to express myelin proteins including MBP. The degree of maturation can be assessed by determining the percentage of cells expressing early lineage markers such as O4 and the later markers such as MBP. The expression of O4 and MBP in OPCs cultured for 4 and 14 days in the presence or absence of IL-33 was determined. […] The increase seen with IL-33 was similar to that seen with AA.

In test [2] the test system is dorsal root ganglia-OPC co-cultures. In words: In vitro myelination of axons in dorsal root ganglia-OPC co-cultures with IL-33. Conditions: DRG-OPC co-cultures, rat rIL-33 10 ng/ml, 16 days. It is filed as cell-based. How it is done: FIG. 9 provides images showing the myelination of dorsal root ganglion axons. The arrows point to the longer segments of myelinated internodes in cultures with added IL-33 (20×).
In preliminary studies, in vitro myelination of axons in the presence of IL-33 using dorsal root ganglia-OPC co-cultures was examined. Dorsal root ganglions (DRGs) were dissected from postnatal day 2 (P2) rat pups and cultured by established methods. Once the OPCs attached to the plates, they were treated with rat rIL-33 (10 ng/ml) for 16 days. At the end of the experiment, cells were stained with tubulin β for axons and MBP for myelin forming oligodendrocytes. Quantitation of myelin in axons was done using image analysis and the amount of myelin around the axons was determined. […] When compared to vehicle treated controls, there was an 18% increase in MBP in cultures treated with IL-33.

B1: IL-33: recombinant cytokine IL-33 (rat rIL-33) added exogenously to OPC cultures (protein, UniProt Q66H70 1-264, looked up)
Interleukin-33: MRPRMKYSNSKISPAKCDSTSGRALVPPCKITRSQQKTKDICHVYCMRLRSGLTIRKETCYFGKEPAKRYSLKSGSKHEGRLSTCLPDSRKRSLLGSIQAFAASVDTLSIQGTSLLTESCALSTYNDQSVSFVLENGCYVINVEDCGKNQEKDKVLLRYYESSFPAQSGDGVDGKKLMVNMSPIKDTDIWLNANDKDYSVELQKGDVSPPDQAFFVLHKKSSDFVSFECKNLPGTYIGVKDNQLALVEENDESCNNIMFKLSKM
Regarding B1, in the test on MBP in OPCs, the “induction of MBP” value came out at 26%. In test [1], the “induced expression of MBP” value came to 4.5 fold, the “induced expression of Mog” value amounted to 3.8 fold, the “induced expression of PLP” value stood at 2.3 fold and the “induced expression of Purα” value is given as 2.1 fold. In addition, in test [1], the “induced expression of Sox10” value amounted to 3.9 fold and the “induced expression of Sp1” value was 2.2 fold. In the test on OPCs (OPCs cultured with IL-33, 4 days), the “increase in O4 expressing cells vs normal growth medium” value was 2.3 fold. Also, the “formation of mature oligodendrocytes expressing MBP” value in the test with OPCs (OPCs cultured with IL-33, 14 days) is recorded as “increased formation of mature oligodendrocytes”. Besides, in test [2], the “increase in MBP vs vehicle treated controls” value is recorded as 18%.
